Source: article PMC12416549 (2024)

T1: TNFR1 (Homo sapiens, UniProt P19438)
T1 chain: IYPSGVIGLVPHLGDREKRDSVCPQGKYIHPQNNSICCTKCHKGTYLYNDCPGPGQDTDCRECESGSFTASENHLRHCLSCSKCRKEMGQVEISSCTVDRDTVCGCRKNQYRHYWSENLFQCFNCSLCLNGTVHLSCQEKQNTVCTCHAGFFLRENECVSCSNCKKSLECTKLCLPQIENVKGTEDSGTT


Target: T1, TNFR1
Test: yeast display SC50

apparent Kd (screen) [nM] | Binder
1.27 | E104C (designed binder) SMEEEVEKAAKEYEKKKKEAIEKHLEKLKAKDKEAAERFLKELEEAAKEYAKDEAKTMSEEEAKRRAKKYKEKVLLSELSEEEQKEIKEAEEKLVRTILKYVECAAK
1.27 | K17S (designed binder) SMEEEVEKAAKEYEKKSKEAIEKHLEKLKAKDKEAAERFLKELEEAAKEYAKDEAKTMSEEEAKRRAKKYKEKVLLSELSEEEQKEIKEAEEKLVRTILKYVEEAAK
1.16 | L28N (designed binder) SMEEEVEKAAKEYEKKKKEAIEKHLEKNKAKDKEAAERFLKELEEAAKEYAKDEAKTMSEEEAKRRAKKYKEKVLLSELSEEEQKEIKEAEEKLVRTILKYVEEAAK
12.5 | L99E (designed binder) SMEEEVEKAAKEYEKKKKEAIEKHLEKLKAKDKEAAERFLKELEEAAKEYAKDEAKTMSEEEAKRRAKKYKEKVLLSELSEEEQKEIKEAEEKLVRTIEKYVEEAAK
18.3 | R66V (designed binder) SMEEEVEKAAKEYEKKKKEAIEKHLEKLKAKDKEAAERFLKELEEAAKEYAKDEAKTMSEEEAKRVAKKYKEKVLLSELSEEEQKEIKEAEEKLVRTILKYVEEAAK
1.86 | A105K (designed binder) SMEEEVEKAAKEYEKKKKEAIEKHLEKLKAKDKEAAERFLKELEEAAKEYAKDEAKTMSEEEAKRRAKKYKEKVLLSELSEEEQKEIKEAEEKLVRTILKYVEEKAK
13.8 | V95S (designed binder) SMEEEVEKAAKEYEKKKKEAIEKHLEKLKAKDKEAAERFLKELEEAAKEYAKDEAKTMSEEEAKRRAKKYKEKVLLSELSEEEQKEIKEAEEKLSRTILKYVEEAAK
0.869 | K18C (designed binder) SMEEEVEKAAKEYEKKKCEAIEKHLEKLKAKDKEAAERFLKELEEAAKEYAKDEAKTMSEEEAKRRAKKYKEKVLLSELSEEEQKEIKEAEEKLVRTILKYVEEAAK
5.84 | I98Y (designed binder) SMEEEVEKAAKEYEKKKKEAIEKHLEKLKAKDKEAAERFLKELEEAAKEYAKDEAKTMSEEEAKRRAKKYKEKVLLSELSEEEQKEIKEAEEKLVRTYLKYVEEAAK
0.446 | T57K (designed binder) SMEEEVEKAAKEYEKKKKEAIEKHLEKLKAKDKEAAERFLKELEEAAKEYAKDEAKKMSEEEAKRRAKKYKEKVLLSELSEEEQKEIKEAEEKLVRTILKYVEEAAK
0.593 | E12Y (designed binder) SMEEEVEKAAKYYEKKKKEAIEKHLEKLKAKDKEAAERFLKELEEAAKEYAKDEAKTMSEEEAKRRAKKYKEKVLLSELSEEEQKEIKEAEEKLVRTILKYVEEAAK
0.49 | A47K (designed binder) SMEEEVEKAAKEYEKKKKEAIEKHLEKLKAKDKEAAERFLKELEEAKKEYAKDEAKTMSEEEAKRRAKKYKEKVLLSELSEEEQKEIKEAEEKLVRTILKYVEEAAK
13.8 | V95T (designed binder) SMEEEVEKAAKEYEKKKKEAIEKHLEKLKAKDKEAAERFLKELEEAAKEYAKDEAKTMSEEEAKRRAKKYKEKVLLSELSEEEQKEIKEAEEKLTRTILKYVEEAAK
1.54 | E86W (designed binder) SMEEEVEKAAKEYEKKKKEAIEKHLEKLKAKDKEAAERFLKELEEAAKEYAKDEAKTMSEEEAKRRAKKYKEKVLLSELSEEEQKWIKEAEEKLVRTILKYVEEAAK
3.3 | E45H (designed binder) SMEEEVEKAAKEYEKKKKEAIEKHLEKLKAKDKEAAERFLKELEHAAKEYAKDEAKTMSEEEAKRRAKKYKEKVLLSELSEEEQKEIKEAEEKLVRTILKYVEEAAK
1.27 | A55E (designed binder) SMEEEVEKAAKEYEKKKKEAIEKHLEKLKAKDKEAAERFLKELEEAAKEYAKDEEKTMSEEEAKRRAKKYKEKVLLSELSEEEQKEIKEAEEKLVRTILKYVEEAAK
2.73 | V6N (designed binder) SMEEENEKAAKEYEKKKKEAIEKHLEKLKAKDKEAAERFLKELEEAAKEYAKDEAKTMSEEEAKRRAKKYKEKVLLSELSEEEQKEIKEAEEKLVRTILKYVEEAAK
0.79 | S1I (designed binder) IMEEEVEKAAKEYEKKKKEAIEKHLEKLKAKDKEAAERFLKELEEAAKEYAKDEAKTMSEEEAKRRAKKYKEKVLLSELSEEEQKEIKEAEEKLVRTILKYVEEAAK

apparent Kd (screen) [nM] | Binder
0.446 | A20H (designed binder) SMEEEVEKAAKEYEKKKKEHIEKHLEKLKAKDKEAAERFLKELEEAAKEYAKDEAKTMSEEEAKRRAKKYKEKVLLSELSEEEQKEIKEAEEKLVRTILKYVEEAAK
1.4 | S1H (designed binder) HMEEEVEKAAKEYEKKKKEAIEKHLEKLKAKDKEAAERFLKELEEAAKEYAKDEAKTMSEEEAKRRAKKYKEKVLLSELSEEEQKEIKEAEEKLVRTILKYVEEAAK
0.718 | E82L (designed binder) SMEEEVEKAAKEYEKKKKEAIEKHLEKLKAKDKEAAERFLKELEEAAKEYAKDEAKTMSEEEAKRRAKKYKEKVLLSELSELEQKEIKEAEEKLVRTILKYVEEAAK
16.7 | I87R (designed binder) SMEEEVEKAAKEYEKKKKEAIEKHLEKLKAKDKEAAERFLKELEEAAKEYAKDEAKTMSEEEAKRRAKKYKEKVLLSELSEEEQKERKEAEEKLVRTILKYVEEAAK
3 | F39A (designed binder) SMEEEVEKAAKEYEKKKKEAIEKHLEKLKAKDKEAAERALKELEEAAKEYAKDEAKTMSEEEAKRRAKKYKEKVLLSELSEEEQKEIKEAEEKLVRTILKYVEEAAK
0.446 | A9I (designed binder) SMEEEVEKIAKEYEKKKKEAIEKHLEKLKAKDKEAAERFLKELEEAAKEYAKDEAKTMSEEEAKRRAKKYKEKVLLSELSEEEQKEIKEAEEKLVRTILKYVEEAAK
22.2 | E26P (designed binder) SMEEEVEKAAKEYEKKKKEAIEKHLPKLKAKDKEAAERFLKELEEAAKEYAKDEAKTMSEEEAKRRAKKYKEKVLLSELSEEEQKEIKEAEEKLVRTILKYVEEAAK
0.539 | K85I (designed binder) SMEEEVEKAAKEYEKKKKEAIEKHLEKLKAKDKEAAERFLKELEEAAKEYAKDEAKTMSEEEAKRRAKKYKEKVLLSELSEEEQIEIKEAEEKLVRTILKYVEEAAK
24.4 | K73C (designed binder) SMEEEVEKAAKEYEKKKKEAIEKHLEKLKAKDKEAAERFLKELEEAAKEYAKDEAKTMSEEEAKRRAKKYKECVLLSELSEEEQKEIKEAEEKLVRTILKYVEEAAK
1.69 | E4R (designed binder) SMEREVEKAAKEYEKKKKEAIEKHLEKLKAKDKEAAERFLKELEEAAKEYAKDEAKTMSEEEAKRRAKKYKEKVLLSELSEEEQKEIKEAEEKLVRTILKYVEEAAK
1.27 | E72V (designed binder) SMEEEVEKAAKEYEKKKKEAIEKHLEKLKAKDKEAAERFLKELEEAAKEYAKDEAKTMSEEEAKRRAKKYKVKVLLSELSEEEQKEIKEAEEKLVRTILKYVEEAAK
2.05 | A105H (designed binder) SMEEEVEKAAKEYEKKKKEAIEKHLEKLKAKDKEAAERFLKELEEAAKEYAKDEAKTMSEEEAKRRAKKYKEKVLLSELSEEEQKEIKEAEEKLVRTILKYVEEHAK
1.86 | E4I (designed binder) SMEIEVEKAAKEYEKKKKEAIEKHLEKLKAKDKEAAERFLKELEEAAKEYAKDEAKTMSEEEAKRRAKKYKEKVLLSELSEEEQKEIKEAEEKLVRTILKYVEEAAK
1.86 | E89L (designed binder) SMEEEVEKAAKEYEKKKKEAIEKHLEKLKAKDKEAAERFLKELEEAAKEYAKDEAKTMSEEEAKRRAKKYKEKVLLSELSEEEQKEIKLAEEKLVRTILKYVEEAAK
0.446 | K33V (designed binder) SMEEEVEKAAKEYEKKKKEAIEKHLEKLKAKDVEAAERFLKELEEAAKEYAKDEAKTMSEEEAKRRAKKYKEKVLLSELSEEEQKEIKEAEEKLVRTILKYVEEAAK
0.593 | R66P (designed binder) SMEEEVEKAAKEYEKKKKEAIEKHLEKLKAKDKEAAERFLKELEEAAKEYAKDEAKTMSEEEAKRPAKKYKEKVLLSELSEEEQKEIKEAEEKLVRTILKYVEEAAK
12.5 | E14M (designed binder) SMEEEVEKAAKEYMKKKKEAIEKHLEKLKAKDKEAAERFLKELEEAAKEYAKDEAKTMSEEEAKRRAKKYKEKVLLSELSEEEQKEIKEAEEKLVRTILKYVEEAAK
